Among the data in paper PMC9777161 (2022) are Kd values, retold here.

Substitutions are numbered along the chain they refer to.

The term Kd denotes the concentration at which binding is half-saturated. High values mean lower affinity, low ones higher affinity.

The target of experiment [1] is T1, Cytochrome c oxidase (Bos taurus, UniProt P68530).
T1 chain: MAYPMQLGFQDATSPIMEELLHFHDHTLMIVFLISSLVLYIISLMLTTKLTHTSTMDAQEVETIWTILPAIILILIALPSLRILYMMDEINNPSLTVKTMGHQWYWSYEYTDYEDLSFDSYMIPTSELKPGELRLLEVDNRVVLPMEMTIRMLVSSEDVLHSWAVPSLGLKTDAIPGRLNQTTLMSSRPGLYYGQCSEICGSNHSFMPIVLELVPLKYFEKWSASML
Nature of the experiment: laser flash photolysis.

Experiment [2] has as its target T1, Cytochrome c oxidase. In words: analytical ultracentrifugation.
Experiment [3] has as its target T2, Cytochrome c oxidase (Bos taurus, UniProt P68530).
T2 chain: T1 chain with E89T
In words: analytical ultracentrifugation.

B1: Ru-39-Cytochrome c (protein)
chain: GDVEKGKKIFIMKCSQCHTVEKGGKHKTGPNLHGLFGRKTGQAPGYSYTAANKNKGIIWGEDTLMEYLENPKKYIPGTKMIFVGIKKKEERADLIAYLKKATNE
modifications: (dimethylbipyridine)(bisbipyridine)ruthenium at Cys-39
For B1, in experiment [1], the Kd turned out to be 8 µM.

B2: Cytochrome c (protein)
chain: not shown
In turn, B2 had a Kd in experiment [2] of 28.4 µM.

B3: Cytochrome c (protein)
chain: not shown
As for B3, the dissociation constant (Kd) in experiment [2] was 4.7 µM; in experiment [3] it was 2.1 µM.
